Test results published in patent publication US6403769 (US Dept. of Health and Human Services, dated 2002).

Key:
immunoglobulin HFc [1] = molecular target: T1, immunoglobulin HFc (mouse, UniProt P01868 98-324 = IgG part); assay: immunohistochemistry on normal human skin
T1 construct: domain: hinge, CH2 and CH3 domains; Control without a nonantibody portion; also called the HFc portion of IgG; control immunoglobulin HFc

D2/3-HFc fusion protein [2] = molecular target: T2, D2/3-HFc fusion protein (mouse, UniProt P21803 22-262; P01868 98-324 = IgG part, limits assumed); assay: 50% displacement of 125I-KGF by unlabeled KGF, fusion protein captured on Gamma Bind G (Scatchard analysis)
T2 construct: domain: Ig-like effector domains D2 and D3;domain: hinge, CH2 and CH3 domains; Secreted by NIH 3T3 transfectants as a disulfide-linked dimer (80 kd reduced, 160 kd nonreduced); Cloned into HFc-pUC 18 without the heterologous signal peptide; also called KGFR-HFc (D2/3)
Procedure: (§1) Ey et al., Immunochem. 15: 429 (1978). […] Bovine brain aFGF was obtained from Upstate Biotechnology, Inc. (Lake Placid, N.Y.). ^125I-aFGF was prepared as described by Friesel et al., J. Biol. Chem. 261: 7581 (1986).
(§2) Bound ligand recovered from the pellets was counted in a Beckman gamma counter. Specific binding was defined as the difference between binding in the absence or presence of excess unlabeled ligand.
The dissociation constant for each fusion protein was determined by measuring the concentrations of unlabeled ligand required for 50% displacement of radiolabeled ligand.

α PDGFR = molecular target: T3, α PDGFR (UniProt P16234 24-1089, limits assumed); assay: Scatchard analysis
T3 construct: also called α PDGF receptor

β PDGFR = molecular target: T4, β PDGFR (UniProt P09619 33-1106, limits assumed); assay: Scatchard analysis
T4 construct: also called β PDGF receptor

[3] = molecular target: S. aureus protein A Sepharose CL-4B (S. aureus, UniProt P38507 37-477); assay: precipitation of 35S-labeled conditioned medium
Procedure: Cells were incubated in the presence of radiolabeled amino acids to examine the expression of the fusion proteins. […] The immunoprecipitated proteins were then analyzed by SDS-polyacrylamide gel electrophoresis (PAGE) and immunoprecipitated species were visualized after fluorography.
Isolated proteins were analyzed using SDS-PAGE.

immunoglobulin HFc [4] = molecular target: T1, immunoglobulin HFc; assay: ELISA-like assay, 10 ng PDGF BB immobilized
Procedure: After a two hour incubation, wells were washed, and alkaline phosphatase substrate was added to the wells in 100 mM sodium bicarbonate (pH 9.8)-1 mM magnesium chloride. After another incubation, the presence of the product of the chromogenic substrate was measured at 405 nm using an ELISA reader.

D2/3-HFc fusion protein [5] = molecular target: T2, D2/3-HFc fusion protein; assay: 50% displacement of 125I-aFGF by unlabeled aFGF, fusion protein captured on Gamma Bind G (Scatchard analysis)
Procedure: as §1, §2

D2-HFc fusion protein = molecular target: T5, D2-HFc fusion protein (mouse, UniProt P21803 22-156; P01868 98-324 = IgG part, limits assumed); assay: as above
T5 construct: domain: Ig-like effector domain D2;domain: hinge, CH2 and CH3 domains; Disulfide-linked dimer (55 kd reduced, 110 kd nonreduced); also called KGFR-HFc (D2)
Procedure: as §1, §2

T3 sequence (P16234 24-1089 limits assumed): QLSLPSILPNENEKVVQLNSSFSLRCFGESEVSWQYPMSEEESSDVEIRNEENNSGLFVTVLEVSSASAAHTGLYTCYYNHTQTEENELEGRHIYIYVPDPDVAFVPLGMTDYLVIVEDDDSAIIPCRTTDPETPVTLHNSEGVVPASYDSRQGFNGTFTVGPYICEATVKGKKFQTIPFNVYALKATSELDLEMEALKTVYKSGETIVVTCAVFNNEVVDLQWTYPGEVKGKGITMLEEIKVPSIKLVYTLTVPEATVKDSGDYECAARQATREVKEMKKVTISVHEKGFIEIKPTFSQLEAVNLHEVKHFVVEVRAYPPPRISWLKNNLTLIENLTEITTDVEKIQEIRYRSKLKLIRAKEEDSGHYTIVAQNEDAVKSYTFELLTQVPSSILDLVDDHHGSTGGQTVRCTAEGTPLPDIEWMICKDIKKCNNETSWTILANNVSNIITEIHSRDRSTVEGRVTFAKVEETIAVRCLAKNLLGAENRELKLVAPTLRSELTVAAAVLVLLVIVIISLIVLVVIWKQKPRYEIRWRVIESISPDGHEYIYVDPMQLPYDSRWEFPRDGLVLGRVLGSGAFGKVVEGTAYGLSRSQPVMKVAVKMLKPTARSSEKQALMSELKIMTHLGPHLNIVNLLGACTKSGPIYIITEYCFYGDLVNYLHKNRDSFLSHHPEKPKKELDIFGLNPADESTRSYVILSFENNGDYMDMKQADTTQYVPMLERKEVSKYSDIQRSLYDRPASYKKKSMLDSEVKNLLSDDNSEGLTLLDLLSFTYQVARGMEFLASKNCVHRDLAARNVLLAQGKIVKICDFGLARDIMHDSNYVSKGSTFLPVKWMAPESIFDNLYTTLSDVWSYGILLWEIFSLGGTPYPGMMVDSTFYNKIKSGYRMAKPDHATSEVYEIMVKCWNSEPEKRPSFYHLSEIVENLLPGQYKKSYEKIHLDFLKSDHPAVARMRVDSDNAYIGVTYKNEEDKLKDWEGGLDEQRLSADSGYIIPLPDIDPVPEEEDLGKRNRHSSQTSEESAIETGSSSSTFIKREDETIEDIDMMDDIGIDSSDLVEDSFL
T4 sequence (P09619 33-1106 limits assumed): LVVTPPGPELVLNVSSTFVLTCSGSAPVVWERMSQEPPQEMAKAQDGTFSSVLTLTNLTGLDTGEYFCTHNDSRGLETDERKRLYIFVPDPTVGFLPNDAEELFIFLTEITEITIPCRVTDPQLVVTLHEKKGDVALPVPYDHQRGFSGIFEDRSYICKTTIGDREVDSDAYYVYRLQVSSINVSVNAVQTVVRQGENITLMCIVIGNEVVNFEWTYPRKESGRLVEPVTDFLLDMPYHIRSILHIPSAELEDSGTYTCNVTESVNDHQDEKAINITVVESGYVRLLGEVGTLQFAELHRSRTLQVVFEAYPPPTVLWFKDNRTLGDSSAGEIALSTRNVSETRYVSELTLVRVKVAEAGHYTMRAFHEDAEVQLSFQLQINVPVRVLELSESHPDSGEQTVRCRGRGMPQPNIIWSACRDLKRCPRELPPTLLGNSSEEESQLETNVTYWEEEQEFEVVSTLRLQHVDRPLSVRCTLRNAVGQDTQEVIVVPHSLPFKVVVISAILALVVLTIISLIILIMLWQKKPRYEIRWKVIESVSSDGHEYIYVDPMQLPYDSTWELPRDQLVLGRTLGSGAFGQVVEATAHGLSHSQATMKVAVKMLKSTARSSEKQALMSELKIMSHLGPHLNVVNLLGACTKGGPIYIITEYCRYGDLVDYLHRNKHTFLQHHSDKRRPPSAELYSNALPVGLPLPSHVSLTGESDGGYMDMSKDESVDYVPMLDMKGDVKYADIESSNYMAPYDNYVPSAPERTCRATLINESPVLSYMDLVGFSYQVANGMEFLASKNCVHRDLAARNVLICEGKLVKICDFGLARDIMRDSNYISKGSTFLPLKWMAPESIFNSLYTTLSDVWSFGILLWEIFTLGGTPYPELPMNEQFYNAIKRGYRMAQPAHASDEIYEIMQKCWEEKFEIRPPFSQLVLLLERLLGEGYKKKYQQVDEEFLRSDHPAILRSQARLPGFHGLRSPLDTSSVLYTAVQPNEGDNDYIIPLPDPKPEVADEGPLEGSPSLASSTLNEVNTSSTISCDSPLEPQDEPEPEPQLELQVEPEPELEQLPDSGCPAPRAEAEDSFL

B1: keratinocyte growth factor (KGF) (ligand, human, UniProt P21781 32-194, looked up)
chain: CNDMTPEQMATNVNCSSPERHTRSYDYMEGGDIRVRRLFCRTQWYLRIDKRGKVKGTQEMKNNYNIMEIRTVAVGIVAIKGVESEFYLAMNKEGKLYAKKECNEDCNFKELILENHYNTYASAKWTHNGGEMFVALNQKGIPVRGKKTKKEQKTAHFLPMAIT
notes: also called recombinant human KGF; recombinant KGF
Immunoglobulin HFc [1]
  binding result: no binding
D2/3-HFc fusion protein [2]
  Kd: 0.12 nM

B2: PDGF B-HFc fusion protein (Fc fusion, UniProt P01127 82-190, looked up)
chain: SLGSLTIAEPAMIAECKTRTEVFEISRRLIDRTNANFLVWPPCVEVQRCSGCCNNRNVQCRPTQVQLRPVQVRKIEIVRKKPIFKKATVTLEDHLACKCETVAAARPVTVPRDCGCKPCICTVPEVSSVFIFPPKPKDVLTITLTPKVTCVVVDISKDDPEVQFSWFVDDVEVHTAQTQPREEQFNSTFRSVSELPIMHQDWLNGKEFKCRVNSAAFPAPIEKTISKTKGRPKAPQVYTIPPPKEQMAKDKVSLTCMITDFFPEDITVEWQWNGQPAENYKNTQPIMNTNGSYFVYSKLNVQKSNWEAGNTFTCSVLHEGLHNHHTEKSLSHSPGK
notes: Expressed as an 84 kd dimeric protein
α PDGFR
  Kd: 3.2 nM
β PDGFR
  Kd: 1.4 nM

B3: KGF-HFc fusion protein (Fc fusion, UniProt P21781 32-194, looked up)
chain: CNDMTPEQMATNVNCSSPERHTRSYDYMEGGDIRVRRLFCRTQWYLRIDKRGKVKGTQEMKNNYNIMEIRTVAVGIVAIKGVESEFYLAMNKEGKLYAKKECNEDCNFKELILENHYNTYASAKWTHNGGEMFVALNQKGIPVRGKKTKKEQKTAHFLPMAITVPRDCGCKPCICTVPEVSSVFIFPPKPKDVLTITLTPKVTCVVVDISKDDPEVQFSWFVDDVEVHTAQTQPREEQFNSTFRSVSELPIMHQDWLNGKEFKCRVNSAAFPAPIEKTISKTKGRPKAPQVYTIPPPKEQMAKDKVSLTCMITDFFPEDITVEWQWNGQPAENYKNTQPIMNTNGSYFVYSKLNVQKSNWEAGNTFTCSVLHEGLHNHHTEKSLSHSPGK
notes: Disulfide-linked dimer, p94-98 nonreduced, 48 kd reduced
[3]
  binding result: binds

B4: PDGF BB (ligand, UniProt P01127 82-190, looked up)
chain: SLGSLTIAEPAMIAECKTRTEVFEISRRLIDRTNANFLVWPPCVEVQRCSGCCNNRNVQCRPTQVQLRPVQVRKIEIVRKKPIFKKATVTLEDHLACKCETVAAARPVT
notes: also called PDGF BB protein
Immunoglobulin HFc [4]
  binding result: no binding

B5: PDGF A-HFc fusion protein (Fc fusion)
chain: not shown
notes: Expressed as an 84-89 kd dimeric protein
α PDGFR
  Kd: 1.3 nM
β PDGFR
  binding result: no binding

B6: bovine brain aFGF (ligand, UniProt P03968 16-155, looked up)
chain: FNLPLGNYKKPKLLYCSNGGYFLRILPDGTVDGTKDRSDQHIQLQLCAESIGEVYIKSTETGQFLAMDTDGLLYGSQTPNEECLFLERLEENHYNTYISKKHAEKHWFVGLKKNGRSKLGPRTHFGQKAILFLPLPVSSD
notes: also called radioiodinated bovine fibroblast growth factor (aFGF); 125I-aFGF
D2/3-HFc fusion protein [5]
  Kd: 0.52 nM
D2-HFc fusion protein
  Kd: 0.96 nM
